Holding throughout (experiment): BLI
What all share (conditions): biotinylated; BLI (BLItz): 20 mM Tris-HCl pH 7.4, 80 mM NaCl, 20 mM KCl, 1 mM DTT, room temperature; […] (Triton X-100, Tween-20)

Series [1] concerns CCHFV N protein stalk domain (Crimean Congo Hemorrhagic fever virus strain 10200?).
In series [2] the test system is CCHFV nucleocapsid (N) protein, wild type (Crimean Congo Hemorrhagic fever virus strain 10200).
Series [3] has the same test system. The source holds these as a separate data set.
Series [4] relates to CCHFV N protein stalk domain (Crimean Congo Hemorrhagic fever virus strain 10200?). This is another data set of the same source.
Series [5] relates to CCHFV nucleocapsid (N) protein, wild type (Crimean Congo Hemorrhagic fever virus strain 10200). The source holds these as a separate data set.

The record followed here is publication PMC8608356.

One may read the Kd as the concentration at which binding is half-saturated. Read a high Kd as a looser complex. As to CCHFV S-segment mRNA 5' UTR, the Kd in series [1] was 36.7 nM; in series [2], 37.3 nM; in series [3], 67 nM; in series [4] it was 54 nM; in series [5], 54 nM.
